Source: US11091795B2, “Compositions and methods for diagnosing and treating arrhythmias” (Arizona Board of Regents on Behalf of the University of …, priority 2016, dated 2021)
“Also recorded” adds a separate entry of the source.

Legend:
[1] = system: adults with moderate to severe sickle cell disease; settings: cited from earlier work
sickle mice = settings: cited from earlier work
[2] = system: patients with sickle cell disease; settings: cited from earlier work
[3] = system: PBMCs isolated and cultured from patients with sickle cell disease; experiment: Heme administration in vitro to PBMCs from sickle cell disease patients; type: cell-based, human; settings: heme 100 uM, 16 h
Excerpt: IL-18, associated with prolonged QTc and mortality, is induced by heme in PBMCs.

IL-18 = target: T1, IL-18 (Mus musculus, UniProt P70380); experiment: Chronic (sustained) inhibition of IL-18 with IL-18bp in sickle mice; type: in vivo; settings: for myocardial fibrosis (Picrosirius Red staining): chronic/sustained (3 weeks) IL-18 inhibition; for diastolic function (change in E/E′, LV filling pressures, on echocardiography): chronic/sustained IL-18 inhibition
T1 construct: endogenous in cells; host or cells: sickle mice, in vivo (circulating and cardiac IL-18)
T1 sequence (P70380 36-192): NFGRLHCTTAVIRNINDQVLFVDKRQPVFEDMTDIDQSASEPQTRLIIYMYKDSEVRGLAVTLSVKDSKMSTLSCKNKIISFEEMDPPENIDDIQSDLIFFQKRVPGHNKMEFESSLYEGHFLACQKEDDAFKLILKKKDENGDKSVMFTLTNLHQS
Description: Based on the association of IL-18 with myocardial fibrosis and diastolic dysfunction, the functional role of IL-18 in the development of myocardial fibrosis and diastolic dysfunction was tested. […] The mechanisms of how IL-18 mediates sickle cardiomyopathy with prolonged repolarization, diastolic dysfunction, and myocardial fibrosis are unclear. Given the absence of significant IL-18 effect on WT mice and the vulnerability of sickle mice, microarray transcript profiling in murine LV tissue between the two mice was performed. A total of 1611 probes (812 annotated genes) were differentially expressed between sickle and WT mice (P≤0.05). […] Additionally, RT-PCR and western blot reveal sickle mice have reduced myocardial KCND2 and KCND3 gene expression levels (FIG. 6B) consistent with increased APD.
It is contemplated that IL-18/IL-18R signaling implicates Nox4 function in sickle heart arrhythmic response. In an acute setting, it is contemplated that IL-18-mediated Nox4 activation downregulates KCND2/KCND3 expression and associated Ito activity which prolongs APD promoting VT; in a chronic setting, it is contemplated that IL-18 induces Nox4-mediated myocardial apoptosis and subsequent fibrosis resulting in pathologic electrophysiological remodeling enhancing VT vulnerability. Briefly, myocardial action potentials reflect the sequential activation and inactivation of inward depolarizing (Na^+, Ca^2+) and outward repolarizing (K^+) current-carrying ion channels. The K^+ channel function determines membrane potential and refractoriness of the myocardium. […] These observations are coupled with increased nitrotyrosine (ROS marker) levels and p38 MAPK activation (within 5 mins and sustained for 45 mins) in vivo. Reduced Ito is also associated with IL-18-induced prolonged APD, promoting early after depolarizations (EADs) and reentry formation in sickle cell hearts. Several reports have shown direct Nox4 interactions with IL-18R as well as Nox4-medaited p38 MAPK activation in cardiomyocytes resulting in reduced KCND2/KCND3 mRNA expression (and Ito current) (Li et al., 2012. J Mol Cell Cardiol 52:971-977; Zhou et al., 2008. J Mol Cell Cardiol 45:832-838; Zhou et al., 2006. Circ Res 98:1040-1047). Single cell voltage clamp and organ level optical mapping is used to evaluate the downstream effects of IL-18 and Nox4. […] Based on these acute and chronic data, a mutant mouse with cardiac-specific Nox4 genetic depletion in a sickle cell mouse background is generated to functionally validate the role of cardiac Nox4 in sickle cell cardiomyopathy and inducible VT.

sickle mice hearts = experiment: Optical mapping of ex vivo perfused hearts with exogenous IL-18 in the perfusate; set-up: species or system mouse
Excerpt: (§1) Optical mapping: WT and sickle male mice (12-16 weeks) hearts underwent optical mapping. The optical apparatus has been previously described (Rutledge et al., 2014; supra). The values are presented as the mean±standard deviation. Student t test was used and a P value of <0.05 was considered statistically significant. Sample […] and activation maps with BCL pacing were made for both the control and sickle cell hearts.
(§2) To establish cause and effect, acute effects of IL-18 on the myocardial electrical phenotype were evaluated further in sickle mice. […] Longer perfusion of IL-18 led to the development of multiple PVCs and short-lived VTs (n=4/4 hearts, FIG. 5E).

WT mice hearts = experiment: Optical mapping of ex vivo perfused hearts with exogenous IL-18 in the perfusate (WT); set-up: species or system mouse; settings: IL-18 via the perfusate (20 ng/min)
Excerpt: as §1, §2

[4] = system: transient outward K+ current (Ito) in sickle mouse cardiomyocytes; experiment: Voltage clamp (patch clamp) of Ito in isolated cardiomyocytes; type: cell-based
Description: IL-18 reduces Ito in isolated sickle cardiomyocytes. Voltage clamp experiments were performed on fresh cardiomyocytes isolated from a sickle mouse exposed to IL-18 (FIG. 10).
Patch clamp protocol of Ito: Cardiomyocytes were isolated by standard enzymatic techniques and patch-clamp recordings of Ito were performed with an Axopatch-200B amplifier (Molecular Devices, Sunnyvale, Calif.) as described previously (El Gebeily et al., Pharmacol. 2010 Mar. 10; 629(1-3):96-103). Bath solution was Tyrode solution (mmol/L): 140 NaCl; 5.4 KCl; 1.8 CaCl2; 1 MgCl2; 0.33, Na2HPO4; 10 HEPES, 5.5 glucose (pH adjusted to 7.4 with NaOH). Pipette solution is (mmol/L): 110 K^+-aspartate, 20 KCl, 8 NaCl, 1 MgCl2, 1 CaCk2, 10 BAPTA, 4 K2ATP and 10 HEPES (pH adjusted to 7.2 KOH). Whole-cell voltage-clamp recordings were made using the ruptured patch-clamp technique with a patch-clamp amplifier, Axopatch 200 B (Axon Instruments, Foster City, USA). Pipettes resistances was ˜2 MΩ when filled with pipette solution. Series resistance in the whole-cell mode was compensated. Voltage-clamp currents were low-pass filtered at 1 kHz and digitized at 2 kHz. The total K+ current (Ipeak) was constructed from the current elicited by a series of 5 s test potentials at 10 mV increment from −110 mV to +50 mV from a holding potential of −80 mV at a frequency rate of 0.1 Hz. […] The data were recorded using pClamp 10.6 and analyzed with Clampfit (Axon Instruments, Foster City, USA). Current amplitudes were normalized to the cell capacitance and expressed as pA/pF. All experiments were carried out at room temperature (20-22° C.).

[5] = system: cardiac Nox4, p38, nitrotyrosine in sickle mice; experiment: Acute IL-18 administration in vivo, cardiac Nox4/p38/nitrotyrosine; set-up: species or system mouse; settings: within 5 minutes of IL-18 administration to sickle mice (5 ug/kg)
Excerpt: Nitrotyrosine levels are considered a stable byproduct of the presence of peroxynitrite (ROS).

[6] = short-term administration, tumor necrosis factor-α-induced vaso-occlusion model
[7] = sustained (3 weeks) IL-18 inhibition
[8] = IL-18 via the perfusate (20 ng/min), sickle mice hearts
[9] = sickle mouse cardiomyocytes in the presence of IL-18

Molecule: NC(=O)NO [hydroxyurea]
- frequency of painful crises, episodes of acute chest syndrome, transfusion requirements and hospitalizations ([1]; large multicenter study): marked decrease
- survival ([1]; patients): improved survival
- hemolytic anemia at baseline (sickle mice; long-term administration in sickle mice): does not improve
- animal survival (sickle mice; [6]): prolonged animal survival
- leukocyte recruitment to the microvasculature (sickle mice; [6]): significantly altered

Molecule: Nc1ncn([C@H]2C[C@H](O)[C@@H](CO)O2)c(=O)n1 [decitabine, 5-Aza-2′-deoxycytidine]
- sickle cell patients responding with an increase in HbF levels ([2]; including patients who had failed to respond to hydroxyurea): 100%
- dose-limiting toxicity ([2]; sickle cell patients): reversible neutropenia
- increase in total hemoglobin levels ([2]; sickle cell patients): 2 g/dL
- reticulocyte counts ([2]; sickle cell patients): decreased

Molecule: C=CC1=C(C)c2cc3[n-]c(cc4[n-]c(cc5nc(cc1n2)C(C)=C5C=C)c(C)c4CCC(=O)O)c(CCC(=O)O)c3C.[Fe+2] [heme]
- IL-18 protein expression [3]: induced IL-18 protein expression
- IL-18 protein expression ([3]; listed as Heme): induces IL-18 protein expression

B1: IL-18bp: naturally occurring protein that binds to IL-18 and prevents it from activating its receptor (protein, UniProt Q9Z0M9 29-193, looked up)
Interleukin-18-binding protein: TSAPQTTATVLTGSSKDPCSSWSPAVPTKQYPALDVIWPEKEVPLNGTLTLSCTACSRFPYFSILYWLGNGSFIEHLPGRLKEGHTSREHRNTSTWLHRALVLEELSPTLRSTNFSCLFVDPGQVAQYHIILAQLWDGLKTAPSPSQETLSSHSPVSRSAGPGVA
- myocardial fibrosis (Picrosirius Red staining) (IL-18): reduced
- myocardial fibrosis (Picrosirius Red staining) (IL-18; listed as IL-18 bp): reduced myocardial fibrosis
- diastolic function (change in E/E′, LV filling pressures, on echocardiography) (IL-18): improved cardiac function
- diastolic function (change in E/E′, LV filling pressures, on echocardiography) (IL-18; listed as IL-18 bp): improved
- cardiac IL-18R (β subunit) and Nox4 expression (IL-18; [7]): reduced cardiac Nox4 and IL-18R expression levels; also recorded: reduced cardiac IL-18R (β subunit) and Nox4 expression
- myocardial apoptosis (IL-18; [7]): reduced myocardial apoptosis

B2: IL-18: exogenous IL-18 cytokine administered to mouse hearts, mice or cardiomyocytes (protein, UniProt P70380 36-192, looked up)
Interleukin-18: NFGRLHCTTAVIRNINDQVLFVDKRQPVFEDMTDIDQSASEPQTRLIIYMYKDSEVRGLAVTLSVKDSKMSTLSCKNKIISFEEMDPPENIDDIQSDLIFFQKRVPGHNKMEFESSLYEGHFLACQKEDDAFKLILKKKDENGDKSVMFTLTNLHQS
- action potential duration (APD) (sickle mice hearts; [8]): prolonged APD; also recorded: APD prolongation
- conduction velocity (CV), transverse and longitudinal (sickle mice hearts; [8]): reduced trends in CV; also recorded: Trends in slowing
- rise time of action potentials (sickle mice hearts; [8]): Increased rise time
- electrical effects after 20 minutes of IL-18 administration (sickle mice hearts; after 20 minutes of perfusion): APD prolongation, atrioventricular block, and a slowed heart rate
- development of multiple PVCs and short-lived VTs (sickle mice hearts; longer perfusion of IL-18, sickle hearts): 4/4
- changes in APD, CV and rise time (WT mice hearts): no significant changes
- reduction of Ito ([4]; in 10 minutes, fresh cardiomyocytes isolated from a sickle mouse): 47 % reduction
- peak Ito ([4]; sickle group, IL-18 25 ng/mL, at 50 mV): 3.1±0.8 pA/pF
- Ito (in words) [4, 9]: reduce Ito current; also recorded: further reduced
- fast inactivating Ito [4, 9]: mostly abolished
- cardiac Nox4, p38 activation and nitrotyrosine levels [5]: increases Nox4 levels; also recorded: acutely induces; also recorded: activated
